According to the supplement of paper PMC7877785:
± gives the uncertainty stated by the source.

Test: self-splicing fitness, log relative to wild type (ln ratio); higher = more splicing; Tetrahymena group I intron in knt gene, E. coli kanamycin selection, DiMSum; sequences stand for … in CUCUCU…GGAGGGAAAAGUUAUCAGGCAUGCACCUGGUAGCUAGUCUUUAAACCAAUAGAUUGCAUCGGUUUAAAAGGCAAGACCGUCAAAUUGCGGGAAAGGGGUCAACAGCCGUUCAGUACCAAGUCUCAGGGGAAACUUUGAGAUGGCCUUGCAAAGGGUAUGGUAAUAAGCUGACGGACAUGGUCCUAACCACGCAGCCAAGUCCUAAGUCAACAGAUCUUCUGUUGAUAUGGAUGCAGUUCACAGACUAAAUGUCGGUCGGGGAAGAUGUAUUCUUCUCAUAAGAUAUAGUCGGACCUCUCCUUAAUGGGAGCUAGCGGAUGAAGUGAUGCAACACUGGAGCCGCUGGGAACUAAUUUGUAUGCGAAAGUAUAUUGAUUAGUUUUGGAGUACUCGUGGUCG
Procedure, shortened: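 Fitness was computed with DiMSum as the error-weighted combination of replicate fold changes, kanamycin versus none, each normalised to wild type. The library randomised all eight intron nucleotides of the P1ex region, with the intron placed in the knt kanamycin-resistance gene on pET-22b(+) in E. coli BL21(DE3). Six replicate transformations were grown overnight at 37°C or 30°C on LB agar with or without 25 μg/mL kanamycin, plus 100 μg/mL carbenicillin, 50 μM IPTG and 0.2% rhamnose. Pooled colonies were amplicon-sequenced on an Illumina HiSeq 2500.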

| Sequence | self-splicing fitness (ln) (30 °C) | self-splicing fitness (ln) (37 °C) |
| --- | --- | --- |
| UCGAAGCAAUAUUACGAAGA | -2.08 ± 0.25 | -0.685 ± 0.19 |
| GCGGAGCAAUAUUACGUUCA | -0.896 ± 0.11 | -0.33 ± 0.096 |
| CCUAAGCAAUAUUACGGCAU | -3.48 ± 0.22 | -1.98 ± 0.19 |
| CUACAGCAAUAUUACGAACU | -4.38 ± 0.24 | -2.02 ± 0.25 |
| GAUGAGCAAUAUUACGGAUC | -2.36 ± 0.23 | -1.78 ± 0.19 |
| ACAUAGCAAUAUUACGGCAA | -0.85 ± 0.09 | -0.569 ± 0.084 |
| UUCCAGCAAUAUUACGUUUU | -3.74 ± 0.14 | -2.65 ± 0.16 |
| CACAAGCAAUAUUACGGCAC | -2.95 ± 0.19 | -1.56 ± 0.17 |
| CGAAAGCAAUAUUACGUCUA | -0.692 ± 0.25 | -0.962 ± 0.17 |
| CUCAAGCAAUAUUACGUGGU | -3.18 ± 0.12 | -2.09 ± 0.12 |
| CACAAGCAAUAUUACGAAAU | -2.91 ± 0.19 | -3.24 ± 0.24 |
| ACCUAGCAAUAUUACGUGUC | -4.29 ± 0.29 | -2.24 ± 0.17 |
| AUCGAGCAAUAUUACGUAGA | -3.09 ± 0.32 | -2.7 ± 0.38 |
| AACCAGCAAUAUUACGACCU | -0.404 ± 0.093 | -0.0868 ± 0.1 |
| ACGGAGCAAUAUUACGGCCA | -1.69 ± 0.25 | -2.11 ± 0.23 |
| GUGCAGCAAUAUUACGUUUA | -0.737 ± 0.11 | -0.75 ± 0.12 |
| UAACAGCAAUAUUACGCUGC | -2.45 ± 0.3 | -1.92 ± 0.28 |
| UUAAAGCAAUAUUACGAUGG | 0.00244 ± 0.084 | 0.04 ± 0.1 |
| CCUAAGCAAUAUUACGUGCU | -3 ± 0.24 | -2.55 ± 0.36 |

| Sequence | self-splicing fitness (ln) (30 °C) | self-splicing fitness (ln) (37 °C) |
| --- | --- | --- |
| UGGUAGCAAUAUUACGCACU | -2.2 ± 0.19 | -0.474 ± 0.22 |
| UCAAAGCAAUAUUACGAAUU | -3.32 ± 0.25 | -1.65 ± 0.16 |
| CUUCAGCAAUAUUACGAACU | -3.9 ± 0.37 | -1.75 ± 0.27 |
| ACGAAGCAAUAUUACGAACC | -1.75 ± 0.14 | -0.895 ± 0.19 |
| UUCUAGCAAUAUUACGGGCC | – | -2.38 ± 0.45 |
| UGGAAGCAAUAUUACGUAUA | -2.2 ± 0.26 | -1.27 ± 0.2 |
| UUCAAGCAAUAUUACGCAUG | -2.8 ± 0.13 | -1.7 ± 0.16 |
| GAGUAGCAAUAUUACGGCGU | -0.448 ± 0.17 | 0.221 ± 0.18 |
| CCGCAGCAAUAUUACGAUCU | -3.81 ± 0.29 | -2.35 ± 0.26 |
| CGCGAGCAAUAUUACGGUCC | -3.29 ± 0.4 | -2.12 ± 0.44 |
| UAUCAGCAAUAUUACGGCAA | -0.306 ± 0.12 | 0.808 ± 0.15 |
| AGUAAGCAAUAUUACGGGUU | -2.54 ± 0.18 | -2.68 ± 0.2 |
| CUCUAGCAAUAUUACGAGGC | -3.18 ± 0.36 | – |
| UCGAAGCAAUAUUACGCGUG | -0.488 ± 0.07 | -0.256 ± 0.078 |
| CCGAAGCAAUAUUACGGGCU | -4.21 ± 0.23 | -2.36 ± 0.2 |
| AUAAAGCAAUAUUACGCUUC | -3.66 ± 0.37 | -2.39 ± 0.32 |
| UCUGAGCAAUAUUACGGGGG | -3.29 ± 0.36 | -2.49 ± 0.25 |
| GGCCAGCAAUAUUACGCAGG | – | -2.78 ± 0.22 |
| GAAGAGCAAUAUUACGGUAA | -2.16 ± 0.29 | -1.01 ± 0.24 |
